Among the data in PMC11203576 (International Journal of Molecular Sciences, 2024) are Kd values, retold here.

For this test, the target named is T1, SARS-CoV-2 spike protein RBD, original (wild-type), sfGFP fusion (SARS-CoV-2, UniProt P0DTC2).
T1 construct: also called original RBD; original SARS-CoV-2 RBD
The test is described as follows: SPR; Biacore T200; […] (0.01 M HEPES, 0.15 M NaCl, 3 mM EDTA, 0.05% surfactant P20, […]. As to conditions: both partners purified. (In SPR one partner is held on a chip, and binding of the other changes the refractive index at the surface.)

B1: Recombinant Microcystis viridis NIES-102 lectin (rMVL) (natural protein)
chain: MASYKVNIPAGPLWSNAEAQQVGPKIAAAHQGNFTGQWTTVVESAMSVVEVELQVENTGIHEFKTDVLAGPLWSNDEAQKLGPQIAASYGAEFTGQWRTIVEGVMSVIQIKYTF
notes: also called Microcystis viridis lectin
Consider B1, for which the equilibrium dissociation constant (Kd) (usually the free concentration of one partner at which half of the binding sites on the other are occupied at equilibrium, for simple one-to-one binding) was found to be 2080 nM.
